Experiments:
[1] = target: All1/Af9 fusion protein (endogenous, PER377 cells with t(9;11)), Q03164
[2] = target: All1/Af4 fusion protein (endogenous, SEMK2 cells with t(4;11)), Q03164
All1/Af4 fusion protein (endogenous, SEMK2 cells with t(4;11)), Q03164, sequence (Q03164 other isoform, or with tags, fused parts or gaps): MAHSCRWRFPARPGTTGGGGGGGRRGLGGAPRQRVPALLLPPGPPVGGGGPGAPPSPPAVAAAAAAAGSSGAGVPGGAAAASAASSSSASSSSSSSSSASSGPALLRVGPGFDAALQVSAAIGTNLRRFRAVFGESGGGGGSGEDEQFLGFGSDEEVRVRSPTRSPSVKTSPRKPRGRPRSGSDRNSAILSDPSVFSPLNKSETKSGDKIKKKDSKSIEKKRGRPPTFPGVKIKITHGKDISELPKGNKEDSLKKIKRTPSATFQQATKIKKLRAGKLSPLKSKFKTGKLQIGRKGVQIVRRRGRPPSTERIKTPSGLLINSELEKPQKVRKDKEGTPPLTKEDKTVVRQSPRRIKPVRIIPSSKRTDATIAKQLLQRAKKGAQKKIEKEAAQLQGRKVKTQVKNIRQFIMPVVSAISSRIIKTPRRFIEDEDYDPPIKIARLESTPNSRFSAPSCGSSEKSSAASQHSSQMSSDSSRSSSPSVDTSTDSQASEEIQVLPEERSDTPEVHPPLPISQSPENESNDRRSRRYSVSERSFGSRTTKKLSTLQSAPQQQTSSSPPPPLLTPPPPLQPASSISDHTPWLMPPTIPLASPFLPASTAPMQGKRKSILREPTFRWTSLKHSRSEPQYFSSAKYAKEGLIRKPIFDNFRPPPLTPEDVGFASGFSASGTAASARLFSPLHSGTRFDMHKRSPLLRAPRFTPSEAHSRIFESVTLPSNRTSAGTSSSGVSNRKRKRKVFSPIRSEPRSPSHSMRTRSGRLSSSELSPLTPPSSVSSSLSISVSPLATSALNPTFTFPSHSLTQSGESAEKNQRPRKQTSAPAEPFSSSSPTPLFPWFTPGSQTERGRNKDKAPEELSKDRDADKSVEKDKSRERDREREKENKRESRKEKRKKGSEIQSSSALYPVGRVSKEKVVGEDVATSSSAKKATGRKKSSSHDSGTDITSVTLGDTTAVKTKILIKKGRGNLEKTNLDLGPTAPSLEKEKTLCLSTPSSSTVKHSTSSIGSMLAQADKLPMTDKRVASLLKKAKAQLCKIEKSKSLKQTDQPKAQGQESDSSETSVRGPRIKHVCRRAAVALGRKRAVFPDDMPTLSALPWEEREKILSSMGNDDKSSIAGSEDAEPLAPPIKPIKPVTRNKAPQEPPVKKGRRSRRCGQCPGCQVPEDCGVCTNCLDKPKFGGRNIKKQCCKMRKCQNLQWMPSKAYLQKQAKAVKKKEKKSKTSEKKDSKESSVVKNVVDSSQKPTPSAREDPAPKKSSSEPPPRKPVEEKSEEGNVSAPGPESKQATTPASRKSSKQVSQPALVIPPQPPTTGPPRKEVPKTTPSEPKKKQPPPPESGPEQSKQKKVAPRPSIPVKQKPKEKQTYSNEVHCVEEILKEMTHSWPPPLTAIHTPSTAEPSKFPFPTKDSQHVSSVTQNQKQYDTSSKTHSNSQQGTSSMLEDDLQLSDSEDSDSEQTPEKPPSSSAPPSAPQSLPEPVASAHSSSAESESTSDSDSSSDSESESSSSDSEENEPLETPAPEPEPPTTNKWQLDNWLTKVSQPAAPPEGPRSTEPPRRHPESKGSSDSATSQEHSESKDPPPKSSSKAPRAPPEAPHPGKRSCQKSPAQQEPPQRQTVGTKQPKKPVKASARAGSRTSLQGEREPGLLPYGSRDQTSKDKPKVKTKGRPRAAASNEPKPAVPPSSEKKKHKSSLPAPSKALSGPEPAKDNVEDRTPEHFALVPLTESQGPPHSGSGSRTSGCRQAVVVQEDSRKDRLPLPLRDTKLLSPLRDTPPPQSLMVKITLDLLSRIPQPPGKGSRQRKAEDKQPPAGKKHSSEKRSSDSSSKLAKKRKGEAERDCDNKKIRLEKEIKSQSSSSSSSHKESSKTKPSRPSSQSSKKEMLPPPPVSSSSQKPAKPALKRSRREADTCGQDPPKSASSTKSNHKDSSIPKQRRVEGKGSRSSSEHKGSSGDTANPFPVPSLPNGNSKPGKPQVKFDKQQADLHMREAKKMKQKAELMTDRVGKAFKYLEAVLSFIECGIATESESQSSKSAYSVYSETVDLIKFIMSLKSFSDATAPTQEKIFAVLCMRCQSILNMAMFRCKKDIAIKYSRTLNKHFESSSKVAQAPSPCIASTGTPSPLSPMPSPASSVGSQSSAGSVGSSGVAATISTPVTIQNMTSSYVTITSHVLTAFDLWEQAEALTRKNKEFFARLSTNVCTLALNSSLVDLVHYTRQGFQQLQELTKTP

All1/Af9 fusion protein (endogenous, PER377 cells with t(9;11)), Q03164, sequence (Q03164 other isoform, or with tags, fused parts or gaps): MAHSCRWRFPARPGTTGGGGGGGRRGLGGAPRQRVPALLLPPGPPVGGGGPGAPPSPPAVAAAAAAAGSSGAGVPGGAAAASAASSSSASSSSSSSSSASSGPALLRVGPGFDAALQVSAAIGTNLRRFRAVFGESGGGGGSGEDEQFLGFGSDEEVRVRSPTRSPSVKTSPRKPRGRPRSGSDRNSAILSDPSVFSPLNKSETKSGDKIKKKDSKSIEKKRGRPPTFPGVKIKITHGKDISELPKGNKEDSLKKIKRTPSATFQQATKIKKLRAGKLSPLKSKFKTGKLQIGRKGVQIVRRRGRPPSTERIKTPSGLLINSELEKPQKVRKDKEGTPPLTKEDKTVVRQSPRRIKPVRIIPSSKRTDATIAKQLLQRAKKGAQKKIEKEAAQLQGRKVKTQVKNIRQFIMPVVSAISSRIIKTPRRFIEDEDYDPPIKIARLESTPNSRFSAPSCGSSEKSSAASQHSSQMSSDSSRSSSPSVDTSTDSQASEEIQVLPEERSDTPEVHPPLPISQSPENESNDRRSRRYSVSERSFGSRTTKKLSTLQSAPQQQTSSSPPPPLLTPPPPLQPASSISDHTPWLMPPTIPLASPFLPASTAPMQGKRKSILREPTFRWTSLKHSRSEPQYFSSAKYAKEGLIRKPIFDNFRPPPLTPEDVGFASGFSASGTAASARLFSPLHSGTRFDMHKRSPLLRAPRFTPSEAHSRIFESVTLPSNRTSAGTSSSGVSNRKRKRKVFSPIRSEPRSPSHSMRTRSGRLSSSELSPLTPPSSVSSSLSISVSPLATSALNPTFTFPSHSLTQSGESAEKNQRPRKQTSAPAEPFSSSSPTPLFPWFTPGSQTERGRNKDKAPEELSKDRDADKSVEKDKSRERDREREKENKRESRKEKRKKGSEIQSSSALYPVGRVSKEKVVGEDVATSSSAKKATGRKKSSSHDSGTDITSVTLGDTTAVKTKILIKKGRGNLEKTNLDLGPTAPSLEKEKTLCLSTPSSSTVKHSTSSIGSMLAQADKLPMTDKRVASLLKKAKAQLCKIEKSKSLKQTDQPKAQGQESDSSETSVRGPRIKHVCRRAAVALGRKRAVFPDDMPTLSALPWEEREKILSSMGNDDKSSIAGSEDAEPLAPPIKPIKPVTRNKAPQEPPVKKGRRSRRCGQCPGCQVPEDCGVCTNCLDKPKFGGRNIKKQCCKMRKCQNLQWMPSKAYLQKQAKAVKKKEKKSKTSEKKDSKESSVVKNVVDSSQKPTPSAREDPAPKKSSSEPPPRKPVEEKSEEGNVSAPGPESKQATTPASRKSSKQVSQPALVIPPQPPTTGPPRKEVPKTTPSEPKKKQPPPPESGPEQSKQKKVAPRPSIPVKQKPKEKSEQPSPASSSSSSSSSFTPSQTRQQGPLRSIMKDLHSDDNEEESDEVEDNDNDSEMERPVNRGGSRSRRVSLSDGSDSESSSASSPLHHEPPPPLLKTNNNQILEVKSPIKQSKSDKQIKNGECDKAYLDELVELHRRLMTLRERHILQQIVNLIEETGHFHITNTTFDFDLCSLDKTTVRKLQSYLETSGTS

B1: Drosha (endogenous, immunoprecipitated from SEMK2 or PER377 nuclear extracts) (protein)
chain: MMQGNTCHRMSFHPGRGCPRGRGGHGARPSAPSFRPQNLRLLHPQQPPVQYQYEPPSAPSTTFSNSPAPNFLPPRPDFVPFPPPMPPSAQGPLPPCPIRPPFPNHQMRHPFPVPPCFPPMPPPMPCPNNPPVPGAPPGQGTFPFMMPPPSMPHPPPPPVMPQQVNYQYPPGYSHHNFPPPSFNSFQNNPSSFLPSANNSSSPHFRHLPPYPLPKAPSERRSPERLKHYDDHRHRDHSHGRGERHRSLDRRERGRSPDRRRQDSRYRSDYDRGRTPSRHRSYERSRERERERHRHRDNRRSPSLERSYKKEYKRSGRSYGLSVVPEPAGCTPELPGEIIKNTDSWAPPLEIVNHRSPSREKKRARWEEEKDRWSDNQSSGKDKNYTSIKEKEPEETMPDKNEEEEEELLKPVWIRCTHSENYYSSDPMDQVGDSTVVGTSRLRDLYDKFEEELGSRQEKAKAARPPWEPPKTKLDEDLESSSESECESDEDSTCSSSSDSEVFDVIAEIKRKKAHPDRLHDELWYNDPGQMNDGPLCKCSAKARRTGIRHSIYPGEEAIKPCRPMTNNAGRLFHYRITVSPPTNFLTDRPTVIEYDDHEYIFEGFSMFAHAPLTNIPLCKVIRFNIDYTIHFIEEMMPENFCVKGLELFSLFLFRDILELYDWNLKGPLFEDSPPCCPRFHFMPRFVRFLPDGGKEVLSMHQILLYLLRCSKALVPEEEIANMLQWEELEWQKYAEECKGMIVTNPGTKPSSVRIDQLDREQFNPDVITFPIIVHFGIRPAQLSYAGDPQYQKLWKSYVKLRHLLANSPKVKQTDKQKLAQREEALQKIRQKNTMRREVTVELSSQGFWKTGIRSDVCQHAMMLPVLTHHIRYHQCLMHLDKLIGYTFQDRCLLQLAMTHPSHHLNFGMNPDHARNSLSNCGIRQPKYGDRKVHHMHMRKKGINTLINIMSRLGQDDPTPSRINHNERLEFLGDAVVEFLTSVHLYYLFPSLEEGGLATYRTAIVQNQHLAMLAKKLELDRFMLYAHGPDLCRESDLRHAMANCFEALIGAVYLEGSLEEAKQLFGRLLFNDPDLREVWLNYPLHPLQLQEPNTDRQLIETSPVLQKLTEFEEAIGVIFTHVRLLARAFTLRTVGFNHLTLGHNQRMEFLGDSIMQLVATEYLFIHFPDHHEGHLTLLRSSLVNNRTQAKVAEELGMQEYAITNDKTKRPVALRTKTLADLLESFIAALYIDKDLEYVHTFMNVCFFPRLKEFILNQDWNDPKSQLQQCCLTLRTEGKEPDIPLYKTLQTVGPSHARTYTVAVYFKGERIGCGKGPSIQQAEMGAAMDALEKYNFPQMAHQKRFIERKYRQELKEMRWEREHQEREPDETEDIKK
in vitro cleavage of miR-191 and miR-155 probes by immuno-purified Drosha [1]: Drosha containing All1/Af9 had less processing activity, similar to that of the Drosha:FLAG preparation
in vitro cleavage of miR-191 and miR-155 probes by immuno-purified Drosha [2]: Drosha containing All1/Af4 exhibited the strongest processing activity
